Assay [1] addresses taxol-stabilized microtubules polymerized from bovine brain tubulin (bovine) (UniProt Q6B856).
Assay [2] shares this target. Nature of the assay: co-sedimentation; microtubule pelleting assay as with ATP but with 5 mM AMPPNP: 1 uM Kif5A, tubulin 0-8 uM (WT) or 0-20 uM (mutants), 20 uM taxol, room temperature 15 min; fraction Kif5A bound by western blot densitometry.

human Kif5A, first 560 amino acids, wild type, fused to EGFP and a C-terminal 6xHIS tag, sequence (Q12840 1-560): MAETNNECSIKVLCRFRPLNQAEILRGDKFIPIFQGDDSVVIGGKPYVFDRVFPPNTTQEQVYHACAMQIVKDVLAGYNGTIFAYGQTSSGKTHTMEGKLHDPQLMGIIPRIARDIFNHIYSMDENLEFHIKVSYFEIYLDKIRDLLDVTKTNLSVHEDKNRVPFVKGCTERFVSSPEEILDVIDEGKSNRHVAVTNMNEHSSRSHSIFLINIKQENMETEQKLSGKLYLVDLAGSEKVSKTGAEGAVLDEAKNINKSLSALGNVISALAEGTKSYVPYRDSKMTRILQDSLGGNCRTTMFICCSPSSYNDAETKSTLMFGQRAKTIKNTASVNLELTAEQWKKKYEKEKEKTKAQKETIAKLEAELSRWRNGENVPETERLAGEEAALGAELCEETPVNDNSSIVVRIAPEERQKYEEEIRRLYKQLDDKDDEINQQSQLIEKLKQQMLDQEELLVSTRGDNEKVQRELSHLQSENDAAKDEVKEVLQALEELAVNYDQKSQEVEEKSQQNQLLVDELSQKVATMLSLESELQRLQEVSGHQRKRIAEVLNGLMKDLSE

Turning to “human Kif5A, first 560 amino acids, R204Q, fused to EGFP and a C-terminal 6xHIS tag (from UniProt Q12840 1-560) (domain or fragment)”, the -fold increase of the ATPase rate by MTs (MT-stimulated over basal; malachite green phosphate assay, microtubules from 2 uM tubulin) in assay [1] was found to be 10.6 fold.
The same measure, in the same setting: the value for “human Kif5A, first 560 amino acids, M198T, fused to EGFP and a C-terminal 6xHIS tag (from UniProt Q12840 1-560) (domain or fragment)” was 42.6 fold; that for “human Kif5A, first 560 amino acids, E251K, fused to EGFP and a C-terminal 6xHIS tag (from UniProt Q12840 1-560) (domain or fragment)” was 6.2 fold.
In the case of “human Kif5A, first 560 amino acids, wild type, fused to EGFP and a C-terminal 6xHIS tag (from UniProt Q12840 1-560) (domain or fragment)”, the percent bound at saturation in assay [2] came to 100%. For the same substance, the -fold increase of the ATPase rate by MTs (MT-stimulated over basal; malachite green phosphate assay, microtubules from 2 uM tubulin) in assay [1] is 33.2 fold.
“human Kif5A, first 560 amino acids, S202N, fused to EGFP and a C-terminal 6xHIS tag (from UniProt Q12840 1-560) (domain or fragment)” came in with a -fold increase of the ATPase rate by MTs (MT-stimulated over basal; malachite green phosphate assay, microtubules from 2 uM tubulin) in assay [1] of 5.4 fold.
Same read-out and setting: the figure for “human Kif5A, first 560 amino acids, S203C, fused to EGFP and a C-terminal 6xHIS tag (from UniProt Q12840 1-560) (domain or fragment)” is 23.5 fold.

Values taken from article PMC5498027.
